# Experimental data as given in IntAct's records for PubMed 16832058.
# B1: Proliferation-associated protein 2G4 (Homo sapiens), Q9UQ80 (parent)
# chain: MSGEDEQQEQTIAEDLVVTKYKMGGDIANRVLRSLVEASSSGVSVLSLCEKGDAMIMEETGKIFKKEKEMKKGIAFPTSISVNNCVCHFSPLKSDQDYILKEGDLVKIDLGVHVDGFIANVAHTFVVDVAQGTQVTGRKADVIKAAHLCAEAALRLVKPGNQNTQVTEAWNKVAHSFNCTPIEGMLSHQLKQHVIDGEKTIIQNPTDQQKKDHEKAEFEVHEVYAVDVLVSSGEGKAKDAGQRTTIYKRDPSKQYGLKMKTSRAFFSEVERRFDAMPFTLRAFEDEKKARMGVVECAKHELLQPFNVLYEKEGEFVAQFKFTVLLMPNGPMRITSGPFEPDLYKSEMEVQDAELKALLQSSASRKTQKKKKKKASKTAENATSGETLEENEAGD
# Variants of: B1
# Details: with erbb3_rat Erbb3, Q62799
# erbb3_rat Erbb3, Q62799, sequence (Q62799 whole entry): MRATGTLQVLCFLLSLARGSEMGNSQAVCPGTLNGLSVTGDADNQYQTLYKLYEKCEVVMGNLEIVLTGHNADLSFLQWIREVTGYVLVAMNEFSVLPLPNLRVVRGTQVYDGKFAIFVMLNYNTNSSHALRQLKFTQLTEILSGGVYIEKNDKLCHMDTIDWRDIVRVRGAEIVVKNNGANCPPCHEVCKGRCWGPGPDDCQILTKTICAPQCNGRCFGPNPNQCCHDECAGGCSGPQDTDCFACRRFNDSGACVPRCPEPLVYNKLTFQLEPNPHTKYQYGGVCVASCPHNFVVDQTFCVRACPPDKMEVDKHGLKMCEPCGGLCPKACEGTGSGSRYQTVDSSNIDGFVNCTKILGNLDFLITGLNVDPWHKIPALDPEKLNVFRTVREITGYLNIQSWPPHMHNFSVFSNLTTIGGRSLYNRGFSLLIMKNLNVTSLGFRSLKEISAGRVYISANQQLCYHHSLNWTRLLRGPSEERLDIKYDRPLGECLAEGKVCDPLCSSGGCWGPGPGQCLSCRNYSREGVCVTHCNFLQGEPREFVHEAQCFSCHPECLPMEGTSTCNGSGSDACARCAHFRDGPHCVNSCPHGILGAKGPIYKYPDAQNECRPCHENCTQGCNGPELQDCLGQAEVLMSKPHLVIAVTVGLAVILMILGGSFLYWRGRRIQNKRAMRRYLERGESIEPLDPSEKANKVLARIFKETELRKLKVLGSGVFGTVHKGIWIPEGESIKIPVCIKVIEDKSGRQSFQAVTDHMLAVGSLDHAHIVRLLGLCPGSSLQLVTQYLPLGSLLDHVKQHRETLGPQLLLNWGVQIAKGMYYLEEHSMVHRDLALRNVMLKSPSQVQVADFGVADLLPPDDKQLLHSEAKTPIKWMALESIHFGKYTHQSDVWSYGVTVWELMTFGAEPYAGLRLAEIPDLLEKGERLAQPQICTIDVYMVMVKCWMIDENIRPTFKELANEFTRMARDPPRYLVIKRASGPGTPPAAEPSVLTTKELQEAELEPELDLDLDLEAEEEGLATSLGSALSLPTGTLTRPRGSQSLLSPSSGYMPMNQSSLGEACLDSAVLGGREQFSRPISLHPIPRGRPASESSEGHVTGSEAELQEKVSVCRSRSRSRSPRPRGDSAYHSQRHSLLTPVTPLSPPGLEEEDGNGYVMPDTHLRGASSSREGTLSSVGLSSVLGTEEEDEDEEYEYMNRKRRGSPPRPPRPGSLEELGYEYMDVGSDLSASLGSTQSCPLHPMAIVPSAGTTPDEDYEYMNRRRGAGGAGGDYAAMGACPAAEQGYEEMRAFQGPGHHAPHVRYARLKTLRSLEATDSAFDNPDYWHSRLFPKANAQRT
row,effect of a mutation on the interaction,Variant
1,disrupting interaction strength,MSGEDEQQEQTIAEDLVVTKYKMGGDIANRVLRSLVEASSSGVSVLSLCEKGDAMIMEETGKIFKKEKEMKKGIAFPTSISVNNCVCHFSPLKSDQDYILKEGDLVKIDLGVHVDGFIANVAHTFVVDVAQGTQVTGRKADVIKAAHLCAEAALRLVKPGNQNTQVTEAWNKVAHSFNCTPIEGMLSHQLKQHVIDGEKTIIQNPTDQQKKDHEKAEFEVHEVYAVDVLVSSGEGKAKDAGQRTTIYKRDPSKQYGLKMKTSRAFFSEVERRFDAMPFTLRAFEDEKKARMGVVECAKHELLQPFNVLYEKEGEFVAQFKFTVLLMPNGPMRITSGPFEPDLYKSEMEVQDAELKALLQASASRKTQKKKKKKASKTAENATSGETLEENEAGD [S360A]
